Measured values published in JP2003510672A.

Legend:
[1] = molecular target: ヒト組換え型CD4 (RepliGen, USA) (human) (UniProt P01730); assay: SPR (BIACORE 2000, 25 C), mimetic immobilised on B1 chip, soluble CD4 injected at 16-330 nM
[2] = molecular target: ヒト組換え型CD4 (RepliGen, USA) (human) (UniProt P01730); assay: SPR (BIACORE 2000, 25 C), KD calculated as kd/ka; mimetic immobilised, soluble CD4 injected

## 疑似体 Mk3Tyr-long1SH (cyclic peptide mimetic of the ST40 paratope; MK3Tyr with the Ile between Tyr140 and Asn144 replaced by Lys extended with 3-mercaptopropionic acid)
[1]
  koff: 0.000264 s⁻¹
  kon: 82600 M⁻¹ s⁻¹
[2]
  Kd: 3.2 nM
